# From patent US20200000929A1
# Biological target: NPY2 receptor on HEK293/hNPY2R cells (human) (UniProt P49146)
# Assay: cell-based or functional assay
# Chain of NPY2 receptor on HEK293/hNPY2R cells (human) (P49146 whole entry): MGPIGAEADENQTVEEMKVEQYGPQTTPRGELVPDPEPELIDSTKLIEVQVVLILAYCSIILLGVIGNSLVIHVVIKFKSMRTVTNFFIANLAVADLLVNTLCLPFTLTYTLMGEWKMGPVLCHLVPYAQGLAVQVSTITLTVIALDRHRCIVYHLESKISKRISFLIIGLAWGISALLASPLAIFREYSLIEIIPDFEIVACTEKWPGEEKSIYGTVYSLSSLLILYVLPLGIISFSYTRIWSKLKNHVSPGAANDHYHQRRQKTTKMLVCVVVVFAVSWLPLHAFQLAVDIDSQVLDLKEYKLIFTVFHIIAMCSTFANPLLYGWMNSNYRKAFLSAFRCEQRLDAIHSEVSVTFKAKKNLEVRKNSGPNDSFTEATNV
# Chain of PYY(3-36) wild-type (peptide; modification not given) (chain, as listed by the source): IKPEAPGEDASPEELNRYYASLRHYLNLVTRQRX
"EC50 [nM], day 1, cAMP assay (inhibition of Forskolin stimulated cAMP accumulation in HEK293/hNPY2R cells) [nM]","EC50 [nM], day2, cAMP assay (inhibition of Forskolin stimulated cAMP accumulation in HEK293/hNPY2R cells) [nM]",Substance
0.09,0.1,PYY(3-36) wild-type (peptide; modification not given)
0.14,0.15,"moPYY, Y2receptor specific modified analog of PYY(3-36): Ac-Ile-Lys-Pqa-Arg-His-Tyr-Leu-Asn-Trp-Val-Thr-Arg-Gln-(NMe)-Arg-Tyr-NH2 (peptide)"
